In patent US20160222130A1 (Astellas, published 2016):

Tests used:
Assay in all cases: ELISA; Tie2-Fc coated at 1 ug/mL, chemiluminescence
[1] = molecular target: T1, human Tie2 (1-452)-Fc chimeric protein (human, UniProt Q02763 23-452)
T1 construct: range 1-452; The stated range 1-452 begins at residue 1 of the precursor
Description: (§1) The next day, the immobilized solution was removed, and the plate was washed with a TBS-T solution, and incubated for 60 minutes by the addition of 50 μL of a Blocker™ Casein in TBS (Thermo Fisher Scientific Inc., 37532) to perform blocking. The resultant was washed with a TBS-T solution, and TIE-1-Igγ1-LALA, diluted with 0.05% Tween 20 (Nacalai Tesque Inc., 28353-85)—containing Blocker™ Casein in TBS from 0.03 ng/mL to 100 ng/mL through eight steps, was added thereto in the amount of 20 μL per well. The resultant was incubated at room temperature for 90 minutes and then washed with a TBS-T solution three times, and 20 μL of a biotin-labeled anti-human kappa light chain antibody, which had been diluted to 0.1 μg/mL with 0.05% Tween 20-containing Blocker™ Casein in TBS, was added thereto. The resultant was incubated at room temperature for 60 minutes and then washed with a TBS-T solution three times, and 20 μL of alkaline phosphatase-labeled streptavidin, which had been diluted to 0.1 μg/mL with 0.05% Tween 20-containing Blocker™ Casein in TBS, was added thereto. The resultant was incubated at room temperature for 60 minutes and then washed with a TBS-T solution three times, and 50 μL of Chemiluminescent Ultra Sensitive AP Microwell and/or Membrane Substrate (450 nm), which had been 5-fold diluted with 1 mM MgCl₂-containing 20 mM TBS (pH 9.8) as a substrate, was added thereto. The resultant was incubated at room temperature under light-shielding for 40 minutes, and then luminescent intensity thereof was measured with an EnVision™ multi-label counter. The EC₅₀ value of TIE-1-Igγ1-LALA with respect to the human Tie2 (1-452)-Fc chimeric protein and 23 mutant proteins thereof were calculated. The relative value of luminescent intensity of 100 ng/mL TIE-1-Igγ1-LALA as maximum concentration point with respect to human Tie2 (1-452)-Fc chimeric protein and 23 mutant proteins thereof when the convergence value of the sigmoid curve of TIE-1-Igγ1-LALA binding to the human Tie2 (1-452)-Fc chimeric protein which was taken as 100% was calculated (Table 8 and Table 9). Further, the EC₅₀ value and the convergence value were calculated by Sigmoid-Emax model non-linear regression analysis.

[2] = molecular target: T2, Human Tie2 (1-452)A5-Fc (human, UniProt Q02763 23-452)
T2 construct: range 1-452
Description: as §1

[3] = molecular target: T3, Human Tie2 (1-452)A3-Fc (human, UniProt Q02763 23-452)
T3 construct: range 1-452
Description: as §1

[4] = molecular target: T4, Human Tie2 (1-452)A2-Fc (human, UniProt Q02763 23-452)
T4 construct: range 1-452
Description: as §1

[5] = molecular target: T5, Human Tie2 (1-452)A6-Fc (human, UniProt Q02763 23-452)
T5 construct: range 1-452
Description: as §1

[6] = molecular target: T6, Human Tie2 (1-452)A4-Fc (human, UniProt Q02763 23-452)
T6 construct: range 1-452
Description: as §1

[7] = molecular target: T7, Human Tie2 (1-452)A1-Fc (human, UniProt Q02763 23-452)
T7 construct: range 1-452
Description: as §1

T7 sequence (Q02763 other isoform, or with tags, fused parts or gaps limits assumed, form in doubt): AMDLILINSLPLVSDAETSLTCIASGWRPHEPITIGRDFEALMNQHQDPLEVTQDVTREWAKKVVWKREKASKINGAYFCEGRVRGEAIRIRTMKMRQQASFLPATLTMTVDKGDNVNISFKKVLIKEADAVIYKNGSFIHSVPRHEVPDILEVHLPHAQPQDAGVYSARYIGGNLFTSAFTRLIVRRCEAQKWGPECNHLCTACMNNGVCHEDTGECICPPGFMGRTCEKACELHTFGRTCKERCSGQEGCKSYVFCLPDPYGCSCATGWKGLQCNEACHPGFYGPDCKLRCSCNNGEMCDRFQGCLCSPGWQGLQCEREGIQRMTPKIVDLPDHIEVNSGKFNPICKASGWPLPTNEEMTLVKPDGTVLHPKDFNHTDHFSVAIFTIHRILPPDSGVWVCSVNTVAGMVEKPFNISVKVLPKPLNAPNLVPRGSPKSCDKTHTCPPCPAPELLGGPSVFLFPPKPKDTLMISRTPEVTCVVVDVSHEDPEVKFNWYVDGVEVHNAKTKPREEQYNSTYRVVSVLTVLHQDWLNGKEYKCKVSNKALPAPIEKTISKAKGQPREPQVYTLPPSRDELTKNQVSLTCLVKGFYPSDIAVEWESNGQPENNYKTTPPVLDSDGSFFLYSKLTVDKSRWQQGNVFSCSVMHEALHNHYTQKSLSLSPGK
T6 sequence (Q02763 other isoform, or with tags, fused parts or gaps limits assumed, form in doubt): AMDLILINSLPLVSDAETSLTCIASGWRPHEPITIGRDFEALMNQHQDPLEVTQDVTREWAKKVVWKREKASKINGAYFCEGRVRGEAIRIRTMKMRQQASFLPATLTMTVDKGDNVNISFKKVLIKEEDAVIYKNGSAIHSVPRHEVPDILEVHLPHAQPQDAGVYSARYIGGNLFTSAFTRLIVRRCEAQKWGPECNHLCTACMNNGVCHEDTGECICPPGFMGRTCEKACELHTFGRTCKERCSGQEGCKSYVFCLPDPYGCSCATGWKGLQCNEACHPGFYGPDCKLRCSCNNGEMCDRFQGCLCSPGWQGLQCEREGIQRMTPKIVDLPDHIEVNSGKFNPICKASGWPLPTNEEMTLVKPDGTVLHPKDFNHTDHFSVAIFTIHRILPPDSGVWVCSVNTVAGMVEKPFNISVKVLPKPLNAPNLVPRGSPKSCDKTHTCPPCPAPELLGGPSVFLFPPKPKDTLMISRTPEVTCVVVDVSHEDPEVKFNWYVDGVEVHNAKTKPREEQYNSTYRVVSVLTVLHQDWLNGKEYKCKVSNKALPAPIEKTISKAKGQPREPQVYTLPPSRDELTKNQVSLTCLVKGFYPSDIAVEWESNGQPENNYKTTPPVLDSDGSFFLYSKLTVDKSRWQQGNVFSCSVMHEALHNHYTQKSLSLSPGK
T5 sequence (Q02763 other isoform, or with tags, fused parts or gaps limits assumed, form in doubt): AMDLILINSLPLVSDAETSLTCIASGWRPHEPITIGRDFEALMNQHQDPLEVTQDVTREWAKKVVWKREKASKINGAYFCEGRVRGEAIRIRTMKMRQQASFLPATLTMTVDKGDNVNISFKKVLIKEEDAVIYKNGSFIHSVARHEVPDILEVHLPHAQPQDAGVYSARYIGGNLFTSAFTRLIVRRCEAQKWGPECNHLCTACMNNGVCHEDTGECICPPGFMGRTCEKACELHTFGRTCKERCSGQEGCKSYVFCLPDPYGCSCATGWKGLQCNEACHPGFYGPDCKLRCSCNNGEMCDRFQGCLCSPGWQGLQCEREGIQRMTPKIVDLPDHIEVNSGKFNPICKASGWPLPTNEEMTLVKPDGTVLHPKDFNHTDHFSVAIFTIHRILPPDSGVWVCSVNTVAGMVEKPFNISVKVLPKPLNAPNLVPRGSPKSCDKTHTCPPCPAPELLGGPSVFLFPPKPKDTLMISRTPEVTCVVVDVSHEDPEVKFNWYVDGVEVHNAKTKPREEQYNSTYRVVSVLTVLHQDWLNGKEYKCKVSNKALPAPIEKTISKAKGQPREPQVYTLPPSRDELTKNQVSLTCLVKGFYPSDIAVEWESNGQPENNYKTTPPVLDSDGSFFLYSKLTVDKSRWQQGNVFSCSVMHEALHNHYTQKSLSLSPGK
T4 sequence (Q02763 other isoform, or with tags, fused parts or gaps limits assumed, form in doubt): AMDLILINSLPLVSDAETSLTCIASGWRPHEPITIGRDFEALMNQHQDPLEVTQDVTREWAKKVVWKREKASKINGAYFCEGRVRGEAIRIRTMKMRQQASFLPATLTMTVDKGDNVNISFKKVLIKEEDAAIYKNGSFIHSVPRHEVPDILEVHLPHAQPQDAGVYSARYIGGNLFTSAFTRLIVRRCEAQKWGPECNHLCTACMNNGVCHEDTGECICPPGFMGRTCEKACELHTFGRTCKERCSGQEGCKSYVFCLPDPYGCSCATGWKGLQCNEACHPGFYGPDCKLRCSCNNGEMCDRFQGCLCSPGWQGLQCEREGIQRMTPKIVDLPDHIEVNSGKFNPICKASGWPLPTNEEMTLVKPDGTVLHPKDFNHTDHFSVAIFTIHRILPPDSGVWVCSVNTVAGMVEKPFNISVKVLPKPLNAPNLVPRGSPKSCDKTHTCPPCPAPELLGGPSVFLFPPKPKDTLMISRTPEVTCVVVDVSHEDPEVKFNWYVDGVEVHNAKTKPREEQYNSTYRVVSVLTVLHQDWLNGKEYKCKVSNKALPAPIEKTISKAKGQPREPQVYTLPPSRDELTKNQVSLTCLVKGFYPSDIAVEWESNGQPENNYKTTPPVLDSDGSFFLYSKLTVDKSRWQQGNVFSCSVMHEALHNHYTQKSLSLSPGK
T1 sequence (Q02763 other isoform, or with tags, fused parts or gaps mutant limits assumed, form in doubt): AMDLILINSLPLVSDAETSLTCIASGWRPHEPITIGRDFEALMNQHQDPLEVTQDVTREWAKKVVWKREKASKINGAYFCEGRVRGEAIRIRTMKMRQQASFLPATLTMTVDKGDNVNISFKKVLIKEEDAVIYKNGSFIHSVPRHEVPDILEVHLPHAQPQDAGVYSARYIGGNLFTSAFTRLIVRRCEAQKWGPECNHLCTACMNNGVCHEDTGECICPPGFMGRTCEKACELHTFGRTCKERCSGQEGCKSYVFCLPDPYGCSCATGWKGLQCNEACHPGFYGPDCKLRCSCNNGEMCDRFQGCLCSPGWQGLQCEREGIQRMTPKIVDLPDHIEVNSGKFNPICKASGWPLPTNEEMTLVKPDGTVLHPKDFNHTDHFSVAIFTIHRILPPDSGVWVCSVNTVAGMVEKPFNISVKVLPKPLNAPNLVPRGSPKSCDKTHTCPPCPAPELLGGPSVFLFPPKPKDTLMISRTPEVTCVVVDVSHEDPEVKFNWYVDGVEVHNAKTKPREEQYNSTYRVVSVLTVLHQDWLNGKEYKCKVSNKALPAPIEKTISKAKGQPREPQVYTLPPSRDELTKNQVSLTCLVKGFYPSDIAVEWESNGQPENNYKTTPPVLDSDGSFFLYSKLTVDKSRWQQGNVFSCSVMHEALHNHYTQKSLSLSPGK
T2 sequence (Q02763 other isoform, or with tags, fused parts or gaps limits assumed, form in doubt): as the sequence (Q02763 other isoform, or with tags, fused parts or gaps mutant limits assumed, form in doubt) above, with S142A counted along it
T3 sequence (Q02763 other isoform, or with tags, fused parts or gaps limits assumed, form in doubt): as the sequence (Q02763 other isoform, or with tags, fused parts or gaps mutant limits assumed, form in doubt) above, with Y134A counted along it

B1: TIE-1-Igγ1-LALA (antibody, human IgG1, kappa, L234A L235A)
heavy: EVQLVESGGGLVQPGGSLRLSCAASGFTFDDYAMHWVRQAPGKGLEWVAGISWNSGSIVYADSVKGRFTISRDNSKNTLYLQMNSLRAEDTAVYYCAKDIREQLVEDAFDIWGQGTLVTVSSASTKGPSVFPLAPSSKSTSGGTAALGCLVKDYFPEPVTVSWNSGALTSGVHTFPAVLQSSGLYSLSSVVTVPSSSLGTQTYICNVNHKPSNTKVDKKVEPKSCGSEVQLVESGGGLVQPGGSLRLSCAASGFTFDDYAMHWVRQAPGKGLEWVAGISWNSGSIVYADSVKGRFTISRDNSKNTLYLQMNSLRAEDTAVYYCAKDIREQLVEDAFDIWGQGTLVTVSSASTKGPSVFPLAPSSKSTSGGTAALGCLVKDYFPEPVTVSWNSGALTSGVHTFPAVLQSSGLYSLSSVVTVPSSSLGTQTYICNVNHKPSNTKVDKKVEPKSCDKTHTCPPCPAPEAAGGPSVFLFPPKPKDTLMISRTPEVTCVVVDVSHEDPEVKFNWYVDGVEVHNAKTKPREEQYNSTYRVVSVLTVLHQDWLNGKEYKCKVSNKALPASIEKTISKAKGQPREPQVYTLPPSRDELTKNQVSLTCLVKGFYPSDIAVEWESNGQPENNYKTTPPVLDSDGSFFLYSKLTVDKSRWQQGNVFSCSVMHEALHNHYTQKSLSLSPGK
light: DIQMTQSPSSLSASVGDRVTITCRSSQSLLHSHRYNYLDWYQQKPGKAPKLLIYLGSNRASGVPSRFSGSGSGTDFTLTISSVQPEDFATYYCMQTLQTPLTFGQGTKVEIKRTVAAPSVFIFPPSDEQLKSGTASVVCLLNNFYPREAKVQWKVDNALQSGNSQESVTEQDSKDSTYSLSSTLTLSKADYEKHKVYACEVTHQGLSSPVTKSFNRGEC
notes: Tandem tetravalent format: two heavy chains (VH-CH1-linker-VH-CH1-CH2-CH3) and four light chains; also called tetravalent anti-human Tie2 antibody with L234A, L235A and P331S
[1]
  EC50: 1 ng/mL
[2]
  EC50: 0.9 ng/mL
[3]
  EC50: 1 ng/mL
[4]
  EC50: 1.3 ng/mL
[5]
  EC50: 1.1 ng/mL
[6]
  EC50: 1 ng/mL
[7]
  EC50: 1.3 ng/mL
